From US20100260668A1 (published 2010)
Several values for one entry are separate records, joined by “and”; a condition that tells them apart may be missing. Equal values may be shown once.

B1: AB072 (anti-DLL4 (seq. 3) parent antibody) (antibody, human IgG1, V domains shown)
VH: EVQLQQSGPELVKPGASVKMSCKASGYTFTSYVINWVKQKPGQGLEWIGLINPYNDGTKYNEKFKVKATLTSDKSSSTAYMELSSLTSEDSAVYYCASYYYGSRYYFDYWGQGTTLTVSS
VL: DIQMTQSSSYLSVSLGGRVTITCKASDHINNWLAWYQQKPGNAPRLLISGATSLETGVPSRFSGSGSGKDYTLSITSLQTEDVATYYCQQYWSIPLTFGAGTKLELKR
notes: also called AB072VH; AB072VL
B2: AB069 (anti-DLL4 (seq. 2) parent antibody) (antibody, human IgG1, V domains shown)
VH: QVQLVQSGAEVKKPGASVKISCKASGYSFTAYYIHWVKQAPGQGLEWIGYISSYNGATNYNQKFKGRVTFTTDTSTSTAYMELRSLRSDDTAVYYCARDYDYDVGMDYWGQGTLVTVSS
VL: DIVMTQSPDSLAVSLGERATISCRASESVDNYGISFMKWFQQKPGQPPKLLIYAASNQGSGVPDRFSGSGSGTDFTLTISSLQAEDVAVYYCQQSKEVPWTFGGGTKVEIKR
notes: also called AB069VH; AB069VL
B3: AB073 (anti-DLL4 (seq. 4) parent antibody) (antibody, human IgG1, V domains shown)
VH: EVQLQQSGPELEKPGASVKISCKASGYSFTGYNMNWVKQSNGKSLEWIGNIDPYFGGTNYNQKFKGKATLTVDKSSSTAYMQLKSLTSEDSAVYYCARNYDYDGGCFDYWGQGTTLTVSS
VL: QAVVTQESALTTSPGETVTLTCRSSTGAVTTSNYANWVQEKPDHLFTGLIGGTNNRAPGVPARFSGSLIGDKAALTITGAQTEDEAIYFCALWYSNHWVFGGGTKLTVLG
notes: also called AB073VH; AB073VL
B4: AB015 (anti-DLL-4 (seq. 1) parent antibody) (antibody, human IgG1, V domains shown)
VH: EVQLVESGGGLVQPGGSLRLSCAASGFTFTDNWISWVRQAPGKGLEWVGYISPNSGFTYYADSVKGRFTISADTSKNTAYLQMNSLRAEDTAVYYCARDNFGGYFDYWGQGTLVTVSS
VL: DIQMTQSPSSLSASVGDRVTITCRASQDVSTAVAWYQQKPGKAPKLLIYSASFLYSGVPSRFSGSGSGTDFTLTISSLQPEDFATTYYCQQSYTGTVTFGQGTKVEIKR
notes: also called AB015VH; AB015VL
B5: DVD509 (bispecific antibody, human IgG1, kappa)
heavy: not shown
light: DIQMTQSSSYLSVSLGGRVTITCKASDHINNWLAWYQQKPGNAPRLLISGATSLETGVPSRFSGSGSGKDYTLSITSLQTEDVATYYCQQYWSIPLTFGAGTKLELKRTVAAPSVFIFPPDIQMTQSPSSLSASVGDRVTITCRASQVIRRSLAWYQQKPGKAPKLLIYAASNLASGVPSRFSGSGSGTDFTLTISSLQPEDFATYYCQQSNTSPLTFGQGTKVEIKRTVAAPSVFIFPPSDEQLKSGTASVVCLLNNFYPREAKVQWKVDNALQSGNSQESVTEQDSKDSTYSLSSTLTLSKADYEKHKVYACEVTHQGLSSPVTKSFNRGEC
notes: DVD-Ig; outer AB072 (DLL4), inner AB071 (VEGF); HC short, LC long linker; also called DVD509H; DVD509L
B6: DVD485 (bispecific antibody, human IgG1, kappa)
heavy: not shown
light: DIQMTQSPSSLSASVGDRVTITCRASQDVSTAVAWYQQKPGKAPKLLIYSASFLYSGVPSRFSGSGSGTDFTLTISSLQPEDFATTYYCQQSYTGTVTFGQGTKVEIKRTVAAPSVFIFPPDIQMTQSPSSLSASVGDRVTITCRASQVIRRSLAWYQQKPGKAPKLLIYAASNLASGVPSRFSGSGSGTDFTLTISSLQPEDFATYYCQQSNTSPLTFGQGTKVEIKRTVAAPSVFIFPPSDEQLKSGTASVVCLLNNFYPREAKVQWKVDNALQSGNSQESVTEQDSKDSTYSLSSTLTLSKADYEKHKVYACEVTHQGLSSPVTKSFNRGEC
notes: DVD-Ig; outer AB015 (DLL4), inner AB071 (VEGF); HC short, LC long linker; also called DVD485H; DVD485L
B7: DVD463 (bispecific antibody, human IgG1, kappa)
heavy: not shown
light: DIVMTQSPDSLAVSLGERATISCRASESVDNYGISFMKWFQQKPGQPPKLLIYAASNQGSGVPDRFSGSGSGTDFTLTISSLQAEDVAVYYCQQSKEVPWTFGGGTKVEIKRTVAAPSVFIFPPDIQMTQSPSSLSASVGDRVTITCRASQVIRRSLAWYQQKPGKAPKLLIYAASNLASGVPSRFSGSGSGTDFTLTISSLQPEDFATYYCQQSNTSPLTFGQGTKVEIKRTVAAPSVFIFPPSDEQLKSGTASVVCLLNNFYPREAKVQWKVDNALQSGNSQESVTEQDSKDSTYSLSSTLTLSKADYEKHKVYACEVTHQGLSSPVTKSFNRGEC
notes: DVD-Ig; outer AB069 (DLL4), inner AB071 (VEGF); HC short, LC long linker; also called DVD463H; DVD463L
B8: DVD533 (bispecific antibody, human IgG1, kappa, lambda, L234A L235A)
heavy: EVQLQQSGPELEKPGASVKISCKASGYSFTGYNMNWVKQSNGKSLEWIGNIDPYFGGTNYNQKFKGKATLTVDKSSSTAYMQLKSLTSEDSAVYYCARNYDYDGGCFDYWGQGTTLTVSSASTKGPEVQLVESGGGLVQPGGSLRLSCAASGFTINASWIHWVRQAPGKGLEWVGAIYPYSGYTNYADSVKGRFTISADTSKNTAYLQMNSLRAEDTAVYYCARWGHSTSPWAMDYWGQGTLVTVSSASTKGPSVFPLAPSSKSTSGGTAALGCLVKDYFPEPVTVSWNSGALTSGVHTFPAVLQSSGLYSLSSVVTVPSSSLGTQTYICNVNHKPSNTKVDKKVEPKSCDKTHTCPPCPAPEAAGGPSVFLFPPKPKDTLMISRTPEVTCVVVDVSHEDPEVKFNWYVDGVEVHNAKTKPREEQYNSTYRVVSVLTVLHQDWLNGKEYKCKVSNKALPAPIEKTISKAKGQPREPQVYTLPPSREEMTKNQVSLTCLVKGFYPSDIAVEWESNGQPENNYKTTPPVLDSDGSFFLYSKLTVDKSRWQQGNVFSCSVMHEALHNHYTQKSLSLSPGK
light: QAVVTQESALTTSPGETVTLTCRSSTGAVTTSNYANWVQEKPDHLFTGLIGGTNNRAPGVPARFSGSLIGDKAALTITGAQTEDEAIYFCALWYSNHWVFGGGTKLTVLGQPKAAPSVTLFPPDIQMTQSPSSLSASVGDRVTITCRASQVIRRSLAWYQQKPGKAPKLLIYAASNLASGVPSRFSGSGSGTDFTLTISSLQPEDFATYYCQQSNTSPLTFGQGTKVEIKRTVAAPSVFIFPPSDEQLKSGTASVVCLLNNFYPREAKVQWKVDNALQSGNSQESVTEQDSKDSTYSLSSTLTLSKADYEKHKVYACEVTHQGLSSPVTKSFNRGEC
notes: DVD-Ig; outer AB073 (DLL4), inner AB071 (VEGF); HC short, LC long linker; also called DVD533H; DVD533L
B9: DVD489 (DLL4/VEGF DVD-Ig) (bispecific antibody, human IgG1)
VH: EVQLQQSGPELVKPGASVKMSCKASGYTFTSYVINWVKQKPGQGLEWIGLINPYNDGTKYNEKFKVKATLTSDKSSSTAYMELSSLTSEDSAVYYCASYYYGSRYYFDYWGQGTTLTVSSASTKGPEVQLVESGGGLVQPGGSLRLSCAASGFTISDYWIHWVRQAPGKGLEWVAGITPAGGYTYYADSVKGRFTISADTSKNTAYLQMNSLRAEDTAVYYCARFVFFLPYAMDYWGQGTLVTVSS
VL: DIQMTQSSSYLSVSLGGRVTITCKASDHINNWLAWYQQKPGNAPRLLISGATSLETGVPSRFSGSGSGKDYTLSITSLQTEDVATYYCQQYWSIPLTFGAGTKLELKRTVAAPDIQMTQSPSSLSASVGDRVTITCRASQDVSTAVAWYQQKPGKAPKLLIYSASFLYSGVPSRFSGSGSGTDFTLTISSLQPEDFATYYCQQSYTTPPTFGQGTKVEIKR
notes: HC linker short, LC linker short; also called DVD489H; DVD489L
B10: DVD513 (DLL4/VEGF DVD-Ig) (bispecific antibody, human IgG1)
VH: EVQLQQSGPELEKPGASVKISCKASGYSFTGYNMNWVKQSNGKSLEWIGNIDPYFGGTNYNQKFKGKATLTVDKSSSTAYMQLKSLTSEDSAVYYCARNYDYDGGCFDYWGQGTTLTVSSASTKGPEVQLVESGGGLVQPGGSLRLSCAASGFTISDYWIHWVRQAPGKGLEWVAGITPAGGYTYYADSVKGRFTISADTSKNTAYLQMNSLRAEDTAVYYCARFVFFLPYAMDYWGQGTLVTVSS
VL: QAVVTQESALTTSPGETVTLTCRSSTGAVTTSNYANWVQEKPDHLFTGLIGGTNNRAPGVPARFSGSLIGDKAALTITGAQTEDEAIYFCALWYSNHWVFGGGTKLTVLGQPKAAPDIQMTQSPSSLSASVGDRVTITCRASQDVSTAVAWYQQKPGKAPKLLIYSASFLYSGVPSRFSGSGSGTDFTLTISSLQPEDFATYYCQQSYTTPPTFGQGTKVEIKR
notes: HC linker short, LC linker short; also called DVD513H; DVD513L
B11: DVD443 (DLL4/VEGF DVD-Ig) (bispecific antibody, human IgG1)
VH: QVQLVQSGAEVKKPGASVKISCKASGYSFTAYYIHWVKQAPGQGLEWIGYISSYNGATNYNQKFKGRVTFTTDTSTSTAYMELRSLRSDDTAVYYCARDYDYDVGMDYWGQGTLVTVSSASTKGPEVQLVESGGGLVQPGGSLRLSCAASGFTISDYWIHWVRQAPGKGLEWVAGITPAGGYTYYADSVKGRFTISADTSKNTAYLQMNSLRAEDTAVYYCARFVFFLPYAMDYWGQGTLVTVSS
VL: DIVMTQSPDSLAVSLGERATISCRASESVDNYGISFMKWFQQKPGQPPKLLIYAASNQGSGVPDRFSGSGSGTDFTLTISSLQAEDVAVYYCQQSKEVPWTFGGGTKVEIKRTVAAPDIQMTQSPSSLSASVGDRVTITCRASQDVSTAVAWYQQKPGKAPKLLIYSASFLYSGVPSRFSGSGSGTDFTLTISSLQPEDFATYYCQQSYTTPPTFGQGTKVEIKR
notes: HC linker short, LC linker short; also called DVD443H; DVD443L
B12: DVD465 (DLL4/VEGF DVD-Ig) (bispecific antibody, human IgG1)
VH: EVQLVESGGGLVQPGGSLRLSCAASGFTFTDNWISWVRQAPGKGLEWVGYISPNSGFTYYADSVKGRFTISADTSKNTAYLQMNSLRAEDTAVYYCARDNFGGYFDYWGQGTLVTVSSASTKGPEVQLVESGGGLVQPGGSLRLSCAASGFTISDYWIHWVRQAPGKGLEWVAGITPAGGYTYYADSVKGRFTISADTSKNTAYLQMNSLRAEDTAVYYCARFVFFLPYAMDYWGQGTLVTVSS
VL: DIQMTQSPSSLSASVGDRVTITCRASQDVSTAVAWYQQKPGKAPKLLIYSASFLYSGVPSRFSGSGSGTDFTLTISSLQPEDFATTYYCQQSYTGTVTFGQGTKVEIKRTVAAPDIQMTQSPSSLSASVGDRVTITCRASQDVSTAVAWYQQKPGKAPKLLIYSASFLYSGVPSRFSGSGSGTDFTLTISSLQPEDFATYYCQQSYTTPPTFGQGTKVEIKR
notes: HC linker short, LC linker short; also called DVD465H; DVD465L
B13: DVD527 (bispecific antibody, human IgG1, kappa)
heavy: not shown
light: QAVVTQESALTTSPGETVTLTCRSSTGAVTTSNYANWVQEKPDHLFTGLIGGTNNRAPGVPARFSGSLIGDKAALTITGAQTEDEAIYFCALWYSNHWVFGGGTKLTVLGQPKAAPDIQMTQSPSSLSASVGDRVTITCRASQVIRRSLAWYQQKPGKAPKLLIYAASNLASGVPSRFSGSGSGTDFTLTISSLQPEDFATYYCQQSNTSPLTFGQGTKVEIKRTVAAPSVFIFPPSDEQLKSGTASVVCLLNNFYPREAKVQWKVDNALQSGNSQESVTEQDSKDSTYSLSSTLTLSKADYEKHKVYACEVTHQGLSSPVTKSFNRGEC
notes: DVD-Ig; outer AB073 (DLL4), inner AB071 (VEGF); HC long, LC short linker; also called DVD527H; DVD527L
B14: DVD503 (bispecific antibody, human IgG1, kappa)
heavy: not shown
light: DIQMTQSSSYLSVSLGGRVTITCKASDHINNWLAWYQQKPGNAPRLLISGATSLETGVPSRFSGSGSGKDYTLSITSLQTEDVATYYCQQYWSIPLTFGAGTKLELKRTVAAPDIQMTQSPSSLSASVGDRVTITCRASQVIRRSLAWYQQKPGKAPKLLIYAASNLASGVPSRFSGSGSGTDFTLTISSLQPEDFATYYCQQSNTSPLTFGQGTKVEIKRTVAAPSVFIFPPSDEQLKSGTASVVCLLNNFYPREAKVQWKVDNALQSGNSQESVTEQDSKDSTYSLSSTLTLSKADYEKHKVYACEVTHQGLSSPVTKSFNRGEC
notes: DVD-Ig; outer AB072 (DLL4), inner AB071 (VEGF); HC long, LC short linker; also called DVD503H; DVD503L

Target: T1, DLL4 (DLL4 ECD/His tag, R&D Systems 1506-D4-050) (UniProt Q9NR61 27-529)
T1 construct: extracellular domain; not shown: His tag
Assay: Direct bind ELISA on DLL4; reference antibody

For B1, the EC50 was 63.4 nM and 63.2 nM.
In the case of B2, the EC50 is reported as 0.23 nM and 0.24 nM.
For B3, the EC50 was 0.22 nM and 0.21 nM.
B4 was tested, and the EC50 was 0.6 nM and 0.58 nM.

Target: T2, DLL4 ECD/His tag (R&D 1506-D4-050) (UniProt Q9NR61 27-529)
T2 construct: extracellular domain; Bought antigen coated on the ELISA plate; not shown: His tag
Assay: direct bind ELISA, DLL4 on plate; DLL4 VD N-term.; HC Short, LC Long

Going from B5 to B6, the EC50 rises from 0.21 nM to 1.41 nM (6.7-fold). The first is the more potent here.

Compared with B7, B8 is 2-fold lower in EC50: 0.5 nM for the first, 0.25 nM for the second. The second is the more potent here.

Target: T1, DLL4 (DLL4 ECD/His tag, R&D Systems …)
Assay: Direct bind ELISA on DLL4; DLL4 domain N-term., HC short, LC short

B9 and B10 are within 1.5-fold of each other in EC50: 0.62 nM for the first, 0.66 nM for the second.

Compared with B11, B12 is 2.8-fold higher in EC50: 0.2 nM for the first, 0.57 nM for the second. The first is the more potent here.

Target: T2, DLL4 ECD/His tag (R&D 1506-D4-050)
Assay: direct bind ELISA, DLL4 on plate; DLL4 VD N-term.; HC Long, LC Short

Compared with B13, B14 is 1.6-fold higher in EC50: 0.2 nM for the first, 0.33 nM for the second. The first is the more potent here.
